Assay results published in the DeepSol protein solubility set.

Test: soluble on expression in E. coli; label from the status in PepcDB or PDB records

Sequence | soluble on expression in E. coli
MGSDKIHHHHHHAFTTGENDPFIKSPTVAKLTNTPNGPLISCDLKALKDTVNFPLSQLTEELQIVKLDNRDEALIGGWIRTTVGEKYILVSNNKQTPYKLFDRTGKFITNIGSYGQGPNEYLNTYAEQLDEANNRIYILPWQSSKILVFDLKGNALDPIPLCLRVPKGKFRVNTAKSEVTVTVLPFPKWPAVVWTQDLKGKRKNFVAPGSLAMPQDFSNEVSMGNNTAAYDVMLMKIMPQPSVDTLYHYNAASNKLEGRFTVKYPSNDKIPWHAYYEIPKYFIGDVSFPIQIDESTFSGSKPAYYMVDKKTLHGNYVRLYNDFISTPSQTIYPSFNNGYYVTNMEPMALKEILEKEVNKKGLTADKKKKVQNLIKTLNDNDNNIVMFAKLKQ | not soluble
MERKSPSGKKFRSKPQLARYLGGSMDLSTFDFRTGKMLMSKMNKSRQRVRYDSSNQVKGKPDLNTALPVRQTASIFKQPVTKITNHPSNKVKSDPQKAVDQPRQLFWEKKLSGLNAFDIAEELVKTMDLPKGLQGVGPGCTDETLLSAIASALHTSTMPITGQLSAAVEKNPGVWLNTTQPLCKAFMVTDEDIRKQEELVQQVRKRLEEALMADMLAHVEELARDGEAPLDKACAEDDDEEDEEEEEEEPDPDPEMEHV | soluble
MTDNDAVSAAFAHMRQEAKKRTGTVPNLNRPLPKASKSLADNDATPAVPKQRGMATGPDGRRRRRSYSVQRAGSILSDEIKKRGWRKEIAGGWVNSHWDDLVGAQIAAHTKVEMFKDKALFITCDSTAWATNLRMMQRIILRSISEQIGPDIIVELKIFGPKAPSWRHGPLHVKGRGPRDTYG | not soluble
MIKPLTSSQEEVLKALNDDKYQIVGVFGPTGTGKTLLTLSYGIDVIKQGKFKKFIIVKPIVDIVTKKEITATELPNYHEVILSYIKDVLGPEYSATVDELYKSGRIEILDSRLLRGRTFDDSIIFIDEVQELQPESIIELIIRIGRNSKLVVAGDPVFQSLQMKTFKDPSELVREVLLNEEDAKVIDLGVKDIIRAGAKRGLRLLIEYRLRSRILSEEENKVLNVTKAHAPDADIITVVDLSEEKKKLGLDNLTTVPDSIIVVKEGNIGRLVGKGGERINSTEKEIGKKLRALELSLDFKEYIRAVHPLPWVVKHIEDADFKGNELVVQIKKETGAFMGQKGSYVRFVDEAIRKLLGVGIRVIAKENENS | soluble
DEEDANFMQRAFEMNDKVASDVMVDRTSMSVVDVDETIADALLLYLEEQYSRFPVTADNDKDKIIGYAYNYDIVRQARIDDKAKISTIMRDIVSVPENMKVPDVMEEMSAHRVPMAIVIDEYGGTSGIITDKDVYEELFGNLRDEQDDED | soluble
SASVEGDDDFGSSSSRSYQDQLYTELWKVCAGPLVEVPRAQERVFYFPQGHMEQLVASTNQGINSEEIPVFDLPPKILCRVLDVTLKAEHETDEVYAQITLQPEEDQSEPTSLDPPIVGPTKQEFHSFVKILTASDTSTHGGFSVLRKHATECLPSLDMTQATPTQELVTRDLHGFEWRFKHIFRGQPRRHLLTTGWSTFVSSKRLVAGDAFVFLRGENGDLRVGVRRLARHQSTMPTSVISSQSMHLGVLATASHAVRTTTIFVVFYKPRISQFIVGVNKYMEAIKHGFSLGTRFRMRFEGEESPERIFTGTIVGSGDLSSQWPASKWRSLQVQWDEPTTVQRPDKVSPWEIEPFLATSPISTPAQQPQSKCKRSRPIEPSVKTPAPPSFLYSLPQSQDSINASLKLFQDPSLERISGGYSSNNSFKPETPPPPTNCSYRLFGFDLTSNSPAPIPQDKQPMDTCGAAKCQEPITPTSMSEQKKQQTSRSRTKVQMQGIAVGRAVDLTLLKSYDELIDELEEMFEIQGQLLARDKWIVVFTDDEGDMMLAGDDPWNEFCKMAKKIFIYSSDEVKKMTTKLKISSSLENEEYGNESFENRSRG | not soluble
MGSDKIHHHHHHMSEKQQILDYIETNKYSYIEISHRIHERPELGNEEIFASRTLIDRLKEHDFEIETEIAGHATGFIATYDSGLDGPAIGFLAEYDALPGLGHACGHNIIGTASVLGAIGLKQVIDQIGGKVVVLGCPAEEGGENGSAKASYVKAGVIDQIDIALMIHPGNETYKTIDTLAVDVLDVKFYGKSAHASENADEALNALDAMISYFNGVAQLRQHIKKDQRVHGVILDGGKAANIIPDYTHARFYTRAMTRKELDILTEKVNQIARGAAIQTGCDYEFGPIQNGVNEFIKTPKLDDLFAKYAEEVGEAVIDDDFGYGSTDTGNVSHVVPTIHPHIKIGSRNLVGHTHRFREAAASVHGDEALIKGAKIMALMGLELITNQDVYQDIIEEHAHLKGNGK | not soluble
MLNNLLQQATSPNGRARQYAIEHTVELTNLIPPTVSYESGGHTLIIGPTMLIERITEPLSSMASITLLSVDGEPGTQSNLYYADTVEISGFLGAFSVNVENHGKRVNLAQAAIGGNSFDIVLDMSLNGLMSEEVPVPGYFPVGRGYPKLADALEEIPTLMGTFDKPKYFRLDPDLCAHSSRGVKGCERCVDACPAGALSSEGSEQTGHRIQINPYLCQGVGTCATACPTEAIHYALPNPTDTQKFIERLLANYHQAGGEKPIVLICSSRHESYNVMALKVLPDNVIPVVVEELPSVGIDSWFAALVNGATQVLFAASRHMPPTIQRILNQEMSMAQSLLTHLGLPKETIDILYLESLREGMPVLCEQPLGLKLGDLIGNKRERLFTALDALAETLNAQPSVQPLSISAPYGTIECQTSDCTLCMSCVAVCPTRALHLAGDSPALRFIEQDCVQCGLCVKACPEQVLSATPQLNWNKAARQGVVTLHQEEPAKCLRCHKPFAPQSMITMLQTKLRGHSHFATPEALNRIAMCEDCRVVDMFEAMAHDPEQQLKY | not soluble
RVTDAEHPGVQLEFTNNKGELVSYEAISPWQKNAAGVNFHTFYGFGAVDLDEAMKRARMTNNVLPAQIITPWANNATEVSVPDASLAGGSSNIAITDDITVESVQVKLTLEHSRLPDLAIELVSPSGTRSVLQTPRNGLVGQSLDPNITGYENQLMLSNQFYGENAKGEWTLRAIDTNGDEVFSFIAYFNSSAIYDVPMANNAKPGVIKNWSMRIFGH | not soluble
MSLRPGIKALAEATGYSIATVSKALNGSPMVAPATKALIHRAAADIGYRANARGMALRTGRTCQAAVLMPVTAARDYEWDGVEYTQILSGISQALEGSDYRMSVHVVRNVEDGCEVARRIIDEGLADGLIFSGIRADDPRIDLLDESRFPFVSLGRCRKPLDYAHVDIDNEWAAHAATARLIAGGHRRIALVNPLRHLSYAEDRVDGFLRAFREANLSPSDDLIAEGDLSTHFGRESALGLLDAARPPTAFVCSNESTTLGVLSGLGSRGRRIGVDVDVVAYDDINVSAYFTPPITTFYQPIEVLGRTLGEFLLRRMAGEDARSLKQVFRPRLIERQPDSLGGREGHHHHHH | soluble
GPGSMPRGSSKSKKEVSEEPKTTGGSGGDATETSPPTPKAKKGKGGDKMLVNEPNDEKHTVEDARTVQTPSDHETSAARKKPPPKDVKDEKKSEPAHGGGRLLKNNPNDEVVPVEGMHNVATPRSGLITTESDGAKGTMLRNAPHDEAIPVSGHAITMDTPKRTIDVHPGTITNTDDDDDPKSTEEEESVPIGRTRGYCNPRPEAINLEAEVPETTAPNLGYKPQEYAMVNANASREVQELFKRILDYQPQTPELPAKLRPFIPDYVPSIGDLDPFCKIPRPDGKPDGLGIYVLDEPSVAQSNPAVVLLELRATNIHSVGGLAEAVDSFEDAANRPEVIDRWINDVKKVHYKKPLPTINYQKPMPEIDLLLQVWPQEFEEFLNSDVQFPPPQIDLDLDQYVRALCCILDIPTYTSLIDSLHVMFTLYQEFRANQHFQHE | soluble
MGSDKIHHHHHHMTISRNYDQEIKDTAGHKYAYNFDFDVMHPFMVRAFTPFFRPGNLLELGSFKGDFTSRLQEHFNDITCVEASEEAISHAQGRLKDGITYIHSRFEDAQLPRRYDNIVLTHVLEHIDDPVALLKRINDDWLAEGGRLFLVCPNANAVSRQIAVKMGIISHNSAVTEAEFAHGHRCTYALDTLERDASRAGLQVTYRSGIFFKALANFQWDQILQTDILSKEYLDGCYQLGQQYPDLCASIFLLCEKGINQ | not soluble
MGSDKIHHHHHHMDDGELEEVFFDEIETIAGKIYLGRIEKIVPGLEAAFVKIGKGRNAFLKLSEINEAYRKTVLKGQEVKEGQKILVQVKKDASGKKGPQVTPQIGIADRFVVIFPFKKVIGVSRKIEDASERRRLRTIAFSLRKKYGVGVIMRTAAEGVDEEEIIKNFERALEKWNQVLQKFRRSRKPKLLYEEDPVEQIIKEKVNSKIDKLIYNDRSLLETLQKYLQNLPKKPEIEYVEGDLFEKFSVYERLKKLLSRTVPLKSGGNIVIDRTEALTVIDVNSESYTDAENQEELALKTNMEAIEEIVRQLILRNIGGIVVIDFIKQKDPKSYEKLLSRFKEVAKRDGTRIEIFGFTNLGLLEITRKRTTRPLDTLLFTRCPVCSGTGKVLSQKILLKRIREDLKKLKDFEEVTLKVHPNMSGYFKREDIKKLQKEFKVKLNLDYGWHDPNSYEIKAKTKKGGK | not soluble
MLNSRRIVVVLPAYNAEKTLEMTYAEIPFEHVDHVLLVDDASRDRTAQVAERLGIKTIVHDRNKGYGANQKTCYRAALDLGADIVIMVHPDYQYTPKLITAMAAMIAYGEFDAVLGSRILGIGALKGGMPLYKYVANRVLTLVENLLLSHKLSEYHTGYRAFSRQVLEQLPLDANGDDFVFDNQMLAQIIWHGYRIGELSCPTKYFEDASSINFRRSVIYGLGVLGTALEFRLARMGLIRSGRFTPRNDQAAAQLEHHHHHH | soluble
MPSKQDVLLLDYWDQWAEAYRINGKSINTVYRYKLFRKHLKSRFDGRKLNSIRPIEWQKFINDFAAGKDRKEKTTRKRPRERSKDIVTKMNSYVRGMVKAAINERILFSDFTFGTKTSGVRLEHHHHHH | not soluble
MAHHHHHHMPTFSDIMAARKALDGYVYETPIIESNALHGKTRHESVLLKCENLQRTGSYHVRGMTYRVIRAKEEDLGINNFVTHSSGNGGAALACAASNFQSTAHVVVPEDTNALITRSIRLYHGNFYYCKPDLKSRVEMEARLHSEFNKVAGKKRNQCMLVNPYSDEAIIAGHGTTGIEIMLQTDCSVDCVVIPVGGGALLAGAAIAVKGMKPHVGVFAAELAVPPDHYTVFKRGEVIEARKLKGDEKRPKGNKHGIRTELTDLANSYIDRYVDGVVHVSKEEMCYAFRYVYERCKLVVDTNAAIAVAAVLACPQELSNYRRICIVLSGGNVDLNDVPKIATARL | soluble
MRHLPTTDIQSTLRRGKSVEQFMGRSPASRNHIRHIELRPSNNLVEVWVYDVEDQGNEEWLDLYDFNELEKGEADLPAATFVDADAAIAYAQEALSANPSRWVNLGIAQSEYLDYIRSGRPDRWPAAA | not soluble
MGSDKIHHHHHHIDQWIRRQHHPTGNPTATQNKVFIATQNQPLLMDTGEKKSPPPPTPPNPPVNHAIAPVAQHPQPMPIPHQVPSPAHGAAHGHPQAPPMYPGIGFAPGMLQLPQNMQTTIVYTPSMAYDNGHPAAQVN | not soluble
MGVSLAKGGNVSLSKEAPGLTAVLVGLGWDVRTTTGTDYDLDASALLLDTSGKVLSDGHFVFYNNLTSPDGSVEHTGDNLTGEGEGDDEAVKVNLVAVPAEVDRIVFPVSIHDAENRGQSFGQVRNAFIRVVNQANNQELARYDLSEDASTETAMVFGELYRHGAEWKFRAVGQGYASGLAGIAADFGVNV | not soluble
MIIERLVGNLRDLNPLDFSVDHVDLEWFETRKKIARFKTRQGKDIAIRLKDAPKLGLSQGDILFKEEKEIIAVNILDSEVIHIQAKSVAEVAKICYEIGNRHAALYYGESQFEFKTPFEKPTLALLEKLGVQNRVLSSKLDSKERLTVSMPHSEPNFKVSLASDFKVVVK | not soluble
